Experimental data: patent US20100092494A1 (BOARD OF TRUSTEES OF THE UNIVERSITY OF ILLINOIS, published 2010)

Tests used:
human basigin-2 = target: T1, human basigin-2 (human, UniProt P35613 140-385); assay: Sulfo-SBED biotin label transfer on HESC and CCL-2 cells, basigin immunoprecipitation, neutravidin-HRP blot
T1 construct: Endogenous glycosylated protein of HESC uterine fibroblasts and CCL-2 (HeLa) cells, found in the membrane fraction; also called basigin isoform 2; 50 kDa basigin protein
T1 sequence: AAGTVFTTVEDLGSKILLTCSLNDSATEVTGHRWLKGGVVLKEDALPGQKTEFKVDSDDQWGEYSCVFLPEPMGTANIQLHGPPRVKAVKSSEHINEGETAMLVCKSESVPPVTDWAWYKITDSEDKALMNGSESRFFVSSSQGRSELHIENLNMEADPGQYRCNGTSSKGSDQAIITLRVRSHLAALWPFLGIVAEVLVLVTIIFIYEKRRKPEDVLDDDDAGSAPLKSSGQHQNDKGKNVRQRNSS
Procedure: Biotin label transfer from rBSG to CCL-2 cells (HeLa) was performed by treating cells with increasing concentrations of SEED-labeled rBSG (0, 0.05, 0.5, 5, and 50 μg/ml) for 10 minutes at 37° C. Following 5 minutes of UV light treatment, cells were washed twice with PBS and total cell lysates collected using IP buffer. Proteins from labeled cells were precipitated with either neutravidin beads (FIGS. 7A and 7B) or immunoprecipitated with the P2C2 mAb (FIGS. 7C and 7D). Precipitated proteins were resolved by 15% SDS-PAGE in duplicate, and immunoblotted with either Streptavidin-HRP (FIGS. 7A and 7C) or with the R&D Systems anti-hEMMPRIN pAb (FIGS. 7B and 7D). The Santa Cruz goat anti-rabbit (anti-mouse, anti-human depleted)-HRP secondary antibody used for this experiment was previously shown to not cross-react with the P2C2 mAb. The basigin-2 band is indicated with an arrowhead and the basigin-3/rBSG band is indicated with an arrow. This experiment was performed twice with similar results.
Immunoprecipitation and Immunoblot Analysis. Immunoprecipitation of basigin was performed using the monoclonal antibody P2C2. Ten to […] of antibody added to 1 mg soluble protein was incubated overnight at 4° C. with rocking, and immune complexes were collected on protein G SEPHAROSE beads for 4 hours at 4° C. Immunoprecipitated proteins were resolved by SDS-PAGE using standard methods. […]

PFO-PAGE and immunoblot = target: the molecule itself; assay: PFO-PAGE and immunoblot

B1: recombinant human basigin extracellular domain construct (rBSG) (ligand)
chain: WSHPQFEKAGTVFTTVEDLGSKILLTCSLNDSATEVTGHRWLKGGVVLKEDALPGQKTEFKVDSDDQWGEYSCVFLPEPMGTANIQLHGPPRVKAVKSSEHINEGETAMLVCKSESVPPVTDWAWYKITDSEDKALMNGSESRFFVSSSQGRSELHIENLNMEADPGQYRCNGTSSKGSDQAIITLRVRSHLHHHHHH
notes: also called recombinant basigin; soluble rBSG
- binding result (human basigin-2): binds
- binding result (PFO-PAGE and immunoblot): binds
